Results reported in patent publication US20130337528A1.

Biological target: goat IgG (goat)
Assay: binding capacity used to set the particle load for goat serum; method not stated
Settings: scale: mg IgG per 5 g wet weight polymer particles

“PhaC-(GB1)3 polymer particles (PHB polymer particles displaying (GB1)3, from plasmid pET-14b PhaC-(GB1)3) (from UniProt P23608 1-589; P06654 228-282; P06654 228-282; P06654 228-282)” gave an IgG binding capacity of over 220.
